Data as given in PMC12708450.

Biological target: PD-L1 (recombinant human) (Homo sapiens) (UniProt Q9NZQ7)
Assay: ELONA
Details: 1:1 hyperbolic fit; internal C3 spacer (iSpC3) between DNA nt 63 and RNA nt 1 (strand position 64); nt 1-63 DNA, nt 64-82 RNA; strand 2 RNA; ELONA: PD-L1 coated in PBS at 4 C overnight; blocked with PBS, 0.1% Tween 20, 1% BSA; wash PBS, 1 mM MgCl2, 0.1% Tween 20, 0.1% BSA; oligo heated 95 C 10 min …

PD-L1 (recombinant human) (Homo sapiens), sequence (Q9NZQ7 19-238): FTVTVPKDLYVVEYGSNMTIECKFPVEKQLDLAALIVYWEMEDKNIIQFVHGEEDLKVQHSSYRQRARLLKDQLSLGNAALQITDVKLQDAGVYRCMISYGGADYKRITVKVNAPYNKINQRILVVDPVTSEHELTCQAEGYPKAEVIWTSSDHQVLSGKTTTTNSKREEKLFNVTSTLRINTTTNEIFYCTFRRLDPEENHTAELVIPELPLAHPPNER

Sequence: ACCGACCGTGCTGGACTCATCTCGCTTTTTTCACGGTCCACACTACTATGAGCGAGCCTGGCGGGAAUGACCUCUUUCACCA / UGGUGAAAGAGGUCAUUCC [PD-L1 aptamer-CD47 siRNA chimera]
- Kd: 174 nM
